Among the data in article PMC5500849, “Cobamide-mediated enzymatic reductive dehalogenation via long-range electron transfer” (Nature Communications, 2017) are Km and kcat values, retold here.

This series deals with Oc1c(Br)cc(Br)cc1Br. The series can be described thus: purified protein. The note with it: reduced methyl viologen 0.5 mM / Ti(III) citrate 1.4 mM, 100 mM Tris-HCl pH 7.5, 22 °C, no NH4+.

As to “PceA (PceA–Strep) (Sulfurospirillum multivorans)”, the Km was 158 µM and the kcat came out at 8 s⁻¹.

One may read the Km as the substrate concentration at which the rate is half of its maximum. The term kcat denotes the number of substrate molecules converted per active site and unit of time at saturation.
